Target: the molecule itself
Experiment: native MS; 200 mM ammonium acetate, 0.062% C10E5, nanoelectrospray, Orbitrap EMR, room temperature; sample expressed with kifunensine and treated with EndoH

B1: TREK2^N84Q (TREK2 residues 55-335, T58A, N144Q, C-terminal StrepTag-II) (domain or fragment, UniProt P57789-1 55-335, looked up)
chain: MEGASQGGLQTVMKWKTVVAIFVVVVVYLVTGGLVFRALEQPFESSQKNTIALEKAEFLRDHVCVSPQELETLIQHALDADNAGVSPIGQSSNNSSHWDLGSAFFFAGTVITTIGYGNIAPSTEGGKIFCILYAIFGIPLFGFLLAGIGDQLGTIFGKSIARVEKVFRKKQVSQTKIRVISTILFILAGCIVFVTIPAVIFKYIEGWTALESIYFVVVTLTTVGFGDFVAGGNAGINYREWYKPLVWFWILVGLAYFAAVLSMIGDWLRVLSKKTKEEVGE
modifications: remaining inner core GlcNAc on Asn after EndoH cleavage; potential modifications of the glycan
notes: TREK2, two-pore domain potassium channel, UniProt P57789-1, residues 55-335 with T58A; The text introduces the mutant as N144Q and then calls it TREK2^N84Q; The Addgene plasmid is named for the parent construct with T58A; also called TREK2 N144Q
stoichiometry N: 2

Reference: paper PMC11228984, “TREK2 Lipid Binding Preferences Revealed by Native Mass Spectrometry” (Journal of the American Society for Mass Spectrometry, 2024)
